Results as given in patent publication US20260166139A1.
Several values for one entry are separate records, joined by “and”; a condition that tells them apart may be missing. Equal values may be shown once. Values belong to the substance of their own block, whether it stands above or below them.

Key:
murine CTLA4 (murine) [1] = target: murine CTLA4 (murine) (UniProt P09793); assay: ELISA, coat murine CTLA4 0.5 ug/ml; antibody 0.003 ug/ml
murine CTLA4 (murine) [2] = target: murine CTLA4 (murine) (UniProt P09793); assay: ELISA, coat murine CTLA4 0.5 ug/ml; antibody 0.1 ug/ml
[3] = target: monkey CTLA4-hFc (monkey); assay: ELISA on coated CTLA4, source Monkey (row of 8D2H2L2)
[4] = target: monkey CTLA4-hFc (monkey); assay: ELISA, coat monkey CTLA4-hFc 0.25 ug/ml; antibody 0 (blank)
[5] = target: monkey CTLA4-hFc (monkey); assay: ELISA on coated CTLA4, source Monkey (row of 8D2H3L3)
[6] = target: monkey CTLA4-hFc (monkey); assay: ELISA, coat monkey CTLA4-hFc 0.25 ug/ml; antibody 1:729 (start 1 ug/ml)
murine CTLA4 (murine) [7] = target: murine CTLA4 (murine) (UniProt P09793); assay: ELISA, coat murine CTLA4 0.5 ug/ml; antibody 0.001 ug/ml
murine CTLA4 (murine) [8] = target: murine CTLA4 (murine) (UniProt P09793); assay: ELISA, coat murine CTLA4 0.5 ug/ml; antibody 1 ug/ml
murine CTLA4 (murine) [9] = target: murine CTLA4 (murine) (UniProt P09793); assay: ELISA on coated CTLA4, source Mouse (row of 8D2H1L1)
[10] = target: monkey CTLA4-hFc (monkey); assay: ELISA, coat monkey CTLA4-hFc 0.25 ug/ml; antibody 1:27 (start 1 ug/ml)
[11] = target: monkey CTLA4-hFc (monkey); assay: ELISA, coat monkey CTLA4-hFc 0.25 ug/ml; antibody 1 ug/ml
[12] = target: monkey CTLA4-hFc (monkey); assay: ELISA, coat monkey CTLA4-hFc 0.25 ug/ml; antibody 1:243 (start 1 ug/ml)
murine CTLA4 (murine) [13] = target: murine CTLA4 (murine) (UniProt P09793); assay: ELISA, coat murine CTLA4 0.5 ug/ml; antibody 0.3 ug/ml
murine CTLA4 (murine) [14] = target: murine CTLA4 (murine) (UniProt P09793); assay: ELISA, coat murine CTLA4 0.5 ug/ml; antibody 0.03 ug/ml
murine CTLA4 (murine) [15] = target: murine CTLA4 (murine) (UniProt P09793); assay: ELISA on coated CTLA4, source Mouse (row of 8D2)
[16] = target: monkey CTLA4-hFc (monkey); assay: ELISA, coat monkey CTLA4-hFc 0.25 ug/ml; antibody 1:81 (start 1 ug/ml)
murine CTLA4 (murine) [17] = target: murine CTLA4 (murine) (UniProt P09793); assay: ELISA, coat murine CTLA4 0.5 ug/ml; antibody 0 ug/ml (blank)
[18] = target: monkey CTLA4-hFc (monkey); assay: ELISA, coat monkey CTLA4-hFc 0.25 ug/ml; antibody 1:9 (start 1 ug/ml)
murine CTLA4 (murine) [19] = target: murine CTLA4 (murine) (UniProt P09793); assay: ELISA, coat murine CTLA4 0.5 ug/ml; antibody 0.01 ug/ml
murine CTLA4 (murine) [20] = target: murine CTLA4 (murine) (UniProt P09793); assay: ELISA on coated CTLA4, source Mouse (row of 8D2(Re))
[21] = target: monkey CTLA4-hFc (monkey); assay: ELISA, coat monkey CTLA4-hFc 0.25 ug/ml; antibody 1:3 (start 1 ug/ml)
[22] = target: CTLA4 antigen on the surface of 293F-CTLA4 host cells (UniProt P16410); assay: flow cytometry, mean fluorescence intensity with the isotype control (unlabeled 293F bar: 3.62)
Chain of CTLA4 antigen on the surface of 293F-CTLA4 host cells (P16410 36-223 limits assumed): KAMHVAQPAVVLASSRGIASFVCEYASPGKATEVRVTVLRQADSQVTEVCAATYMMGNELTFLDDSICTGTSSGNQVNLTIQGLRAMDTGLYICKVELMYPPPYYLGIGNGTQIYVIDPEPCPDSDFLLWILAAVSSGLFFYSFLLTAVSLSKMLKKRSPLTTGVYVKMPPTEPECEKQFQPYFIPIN

absorbance at 450 nm (murine CTLA4 (murine) [1]): 0.292 and 0.328
absorbance at 450 nm (murine CTLA4 (murine) [2]): 2.43 and 2.54
EC50 [3]: 0.258 nM
absorbance at 450 nm [4]: 0.049
EC50 [5]: 0.258 nM
absorbance at 450 nm [6]: 0.063 and 0.067
absorbance at 450 nm (murine CTLA4 (murine) [7]): 0.136 and 0.142
absorbance at 450 nm (murine CTLA4 (murine) [8]): 3 and 2.98
EC50 (murine CTLA4 (murine) [9]): 0.062 nM
absorbance at 450 nm [10]: 0.429 and 0.402
absorbance at 450 nm [11]: 1.79 and 1.85
absorbance at 450 nm [12]: 0.104 and 0.108
absorbance at 450 nm (murine CTLA4 (murine) [13]): 2.85 and 2.9
absorbance at 450 nm (murine CTLA4 (murine) [14]): 1.51
EC50 (murine CTLA4 (murine) [15]): 0.062 nM
absorbance at 450 nm [16]: 0.19 and 0.191
absorbance at 450 nm (murine CTLA4 (murine) [17]): 0.046 and 0.05
absorbance at 450 nm [18]: 0.845 and 0.868
absorbance at 450 nm (murine CTLA4 (murine) [19]): 0.673 and 0.794
EC50 (murine CTLA4 (murine) [20]): 0.062 nM
absorbance at 450 nm [21]: 1.34
Substance: control antibody 10D1

MFI [22]: 4.95
Substance: isotype control (antibody)
